Data published in PMC3217859, “Protein phosphatase 2a (PP2A) binds within the oligomerization domain of striatin and regulates the phosphorylation and activation of the mammalian Ste20-Like kinase Mst3” (BMC Biochemistry, 2011).

Assays:
Assay in all cases: co-IP; anti-HA immunoprecipitates (12CA5 with protein A-Sepharose, or F7 anti-HA-agarose when probing for Mst3 or Mst4; 1.5 h, 4°C) of lysates (1% Nonidet P-40, 0.135 M NaCl, 10% glycerol, 20 mM Tris pH 8.0) of HEK293 cells transfected with HA-striatins; endogenous partners by immunoblot, partner/HA-striatin ratio by chemilumimager against wild type; 50 mM NaF and 100 nM okadaic acid in the lysis buffer in the …
Conditions in all cases: partners not purified
[1] = biological target: T1, HA-tagged Δ(70-116) striatin (human, UniProt O43815 1-780, Δ(70-116))
T1 construct: also called coiled-coil deletion mutant; source: HEK293, transfected, in lysate; not shown: HA, N-terminal, kept
T1 sequence (looked up): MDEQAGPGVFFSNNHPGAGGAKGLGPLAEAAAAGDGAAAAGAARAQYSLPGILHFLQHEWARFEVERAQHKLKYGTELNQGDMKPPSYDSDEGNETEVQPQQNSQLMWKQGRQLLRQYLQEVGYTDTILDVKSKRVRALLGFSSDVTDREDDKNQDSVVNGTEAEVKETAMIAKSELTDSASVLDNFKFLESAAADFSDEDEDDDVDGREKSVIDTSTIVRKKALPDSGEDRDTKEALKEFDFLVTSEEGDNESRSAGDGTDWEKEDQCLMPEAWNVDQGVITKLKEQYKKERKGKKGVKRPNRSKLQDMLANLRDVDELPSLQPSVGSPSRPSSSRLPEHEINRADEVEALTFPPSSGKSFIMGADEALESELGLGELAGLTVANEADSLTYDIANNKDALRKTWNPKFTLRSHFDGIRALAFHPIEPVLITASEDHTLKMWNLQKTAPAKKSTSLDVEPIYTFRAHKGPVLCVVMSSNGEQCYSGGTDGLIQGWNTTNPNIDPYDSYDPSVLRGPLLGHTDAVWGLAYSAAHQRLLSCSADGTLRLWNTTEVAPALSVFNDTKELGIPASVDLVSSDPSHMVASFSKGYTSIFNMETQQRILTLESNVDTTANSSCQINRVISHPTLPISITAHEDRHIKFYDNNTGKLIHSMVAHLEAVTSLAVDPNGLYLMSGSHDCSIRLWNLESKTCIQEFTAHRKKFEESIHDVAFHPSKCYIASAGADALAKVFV

[2] = biological target: T2, HA-tagged Δ(227-309) striatin (human, UniProt O43815 1-780, Δ(227-309))
T2 construct: source: HEK293, transfected, in lysate; not shown: HA, N-terminal, kept
T2 sequence (looked up): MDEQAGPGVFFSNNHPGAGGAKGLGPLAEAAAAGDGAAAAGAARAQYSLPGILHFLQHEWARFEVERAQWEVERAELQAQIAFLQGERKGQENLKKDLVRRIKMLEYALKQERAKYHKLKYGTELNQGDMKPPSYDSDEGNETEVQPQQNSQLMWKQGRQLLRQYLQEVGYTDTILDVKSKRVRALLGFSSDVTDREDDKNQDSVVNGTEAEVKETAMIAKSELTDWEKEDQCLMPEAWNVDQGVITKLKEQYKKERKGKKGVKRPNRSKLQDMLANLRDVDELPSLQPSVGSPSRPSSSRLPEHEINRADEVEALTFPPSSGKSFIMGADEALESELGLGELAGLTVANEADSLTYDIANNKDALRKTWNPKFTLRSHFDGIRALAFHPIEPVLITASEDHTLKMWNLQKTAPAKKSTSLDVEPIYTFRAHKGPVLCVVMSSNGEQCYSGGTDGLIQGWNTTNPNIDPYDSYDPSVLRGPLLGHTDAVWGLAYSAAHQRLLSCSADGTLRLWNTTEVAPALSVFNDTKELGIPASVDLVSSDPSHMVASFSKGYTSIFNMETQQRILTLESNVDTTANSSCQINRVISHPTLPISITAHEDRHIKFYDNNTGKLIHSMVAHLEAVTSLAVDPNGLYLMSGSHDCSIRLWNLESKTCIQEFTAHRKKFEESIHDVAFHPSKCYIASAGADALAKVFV

[3] = biological target: T3, HA-tagged Δ(3-309) striatin (human, UniProt O43815 1-780, Δ(3-309))
T3 construct: source: HEK293, transfected, in lysate; not shown: HA, N-terminal, kept
T3 sequence (looked up): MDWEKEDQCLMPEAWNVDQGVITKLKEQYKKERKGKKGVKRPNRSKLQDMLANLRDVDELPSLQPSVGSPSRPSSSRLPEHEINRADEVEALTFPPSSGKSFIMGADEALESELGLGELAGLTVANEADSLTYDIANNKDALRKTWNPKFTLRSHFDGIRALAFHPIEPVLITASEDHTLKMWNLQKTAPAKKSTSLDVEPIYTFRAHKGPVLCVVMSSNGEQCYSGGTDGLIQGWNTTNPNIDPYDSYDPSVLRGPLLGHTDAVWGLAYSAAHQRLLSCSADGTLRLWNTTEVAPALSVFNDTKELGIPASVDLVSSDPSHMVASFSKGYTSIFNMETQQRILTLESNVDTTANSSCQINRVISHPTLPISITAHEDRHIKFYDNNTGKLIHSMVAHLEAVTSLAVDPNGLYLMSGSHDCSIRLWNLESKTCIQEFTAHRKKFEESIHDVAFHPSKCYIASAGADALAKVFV

percent of the wild-type level bound [1]: 40 % of wild-type levels
percent of the wild-type level bound [2]: 75 % of wild-type levels
percent of the wild-type level bound [3]: ~40 % of wild-type level
B1: Mob3/phocein (natural protein, human (endogenous in HEK293), UniProt Q9Y3A3 1-225, looked up)
chain: MVMAEGTAVLRRNRPGTKAQDFYNWPDESFDEMDSTLAVQQYIQQNIRADCSNIDKILEPPEGQDEGVWKYEHLRQFCLELNGLAVKLQSECHPDTCTQMTATEQWIFLCAAHKTPKECPAIDYTRHTLDGAACLLNSNKYFPSRVSIKESSVAKLGSVCRRIYRIFSHAYFHHRQIFDEYENETFLCHRFTKFVMKYNLMSKDNLIVPILEEEVQNSVSGESEA
notes: source: endogenous, HEK293 lysate
